The values that follow come from patent publication US20240417426A1.

Assay [1] deals with column ligand of the FLAG-Tag system (Prot).
The target in assay [2] is column ligand of the Strep-Tag system (Prot).

In assay [1], FLAG-Tag (peptide) displayed a Capacity of 0.6 mg/mL and a Kd of 0.001 µM.

As to Strep-Tag (peptide), in assay [2], the Capacity is 6 mg/mL and the Kd stood at 1 µM.
